Biological target: MuSA (Mus musculus, UniProt P07724)
Experiment: SPR (Biacore T100) kinetics of FGF21-SABA1 fusions: MuSA
Assay type: binding, murine
Design: purchased Sigma A3559
Details: flow rate 30 μl/min, up to 1 uM analyte
Protocol: The binding competency and thermodynamic characterization of FGF21-SABA fusion variants to human serum albumin were performed using Isothermal Titration calorimetry on a Microcal VP-ITC instrument (Microcal Inc. Amherst Mass., USA). […] The detailed experimental conditions are described below.
For the calorimetry assay, the FGF21-SABA variant SABA1-FGF21v1 (SEQ ID NO: 132) was used. […] For the SPR studies, SABA1-FGF21v1 and SABA1-FGF21v3 (SEQ ID NO: 134) were examined.
Serum albumins were dissolved in PBS buffer (10 mM sodium phosphate, 130 mM sodium chloride, pH 7.1) to a concentration of 10 mg/ml, and subsequently diluted to 8-10 μg/ml in 10 mM sodium acetate pH 5.0 for immobilization. Serum albumins were immobilized on a Series S CMS sensor chip using standard ethyl(dimethylaminopropyl) carbodiimide (EDC)/N-hydroxysuccinimide (NHS) chemistry in HBS-EP+ running buffer at 25° C., following general manufacturer guidelines. Flow cell 1 was activated with EDC/NHS and blocked with ethanolamine. […] Kinetic experiments were performed in PBS buffer containing 0.05% tween-20 (running buffer) at either 25° C. or 37° C. […] These samples were injected across flow cells 1-4 for 300 s, with a 420 s dissociation time, at flow rates of 30 μl/min or 60 μl/min to check for mass transfer limitation. All surfaces were regenerated with 2 pulses of 10 mM glycine pH 2.0 at 30 μl/min for 30 s. Raw sensograms were “double-referenced” by subtracting flow cell 1 data from flow cell 2, 3 or 4 data, and then subtracting a separate buffer cycle from each sensogram. The double-referenced sensogram data was fitted to a 1:1 Langmuir model using Biacore T100 Evaluation software version 2.0.2 to determine the association rate constant (ka), the dissociation rate constant (kd), and the equilibrium dissociation constant (KD).

MuSA, sequence (P07724 25-608): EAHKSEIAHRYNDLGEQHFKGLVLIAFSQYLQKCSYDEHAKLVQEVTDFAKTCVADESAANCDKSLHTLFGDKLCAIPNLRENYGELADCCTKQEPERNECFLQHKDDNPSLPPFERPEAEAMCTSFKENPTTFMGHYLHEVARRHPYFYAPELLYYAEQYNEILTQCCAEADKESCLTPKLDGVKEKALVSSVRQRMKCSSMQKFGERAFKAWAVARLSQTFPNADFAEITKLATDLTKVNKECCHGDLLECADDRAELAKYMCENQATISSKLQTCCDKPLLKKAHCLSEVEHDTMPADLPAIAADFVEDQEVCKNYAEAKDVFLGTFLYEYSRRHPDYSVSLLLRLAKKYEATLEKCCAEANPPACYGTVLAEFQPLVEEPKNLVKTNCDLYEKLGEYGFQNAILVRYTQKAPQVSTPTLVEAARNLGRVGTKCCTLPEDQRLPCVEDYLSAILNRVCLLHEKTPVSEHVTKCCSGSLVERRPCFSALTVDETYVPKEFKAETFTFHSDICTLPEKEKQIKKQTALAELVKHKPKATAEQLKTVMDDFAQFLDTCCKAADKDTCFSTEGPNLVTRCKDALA

binding to MuSA (25° C.): no binding observed up
binding to MuSA (37° C.): no binding observed up
B1: SABA1-FGF21v1: SABA1-FGF21 fusion, SEQ ID NO: 132; 293 aa; DNA SEQ ID NO: 184 (protein)
chain: MGVSDVPRDLEVVAATPTSLLISWHSYYEQNSYYRITYGETGGNSPVQEFTVPYSQTTATISGLKPGVDYTITVYAVYGSKYYYPISINYRTEIEKPSQGSGSGSGSGSGSGSPIPDSSPLLQFGGQVRQRYLYTDDAQQTEAHLEIREDGTVGGAADQSPESLLQLKALKPGVIQILGVKTSRFLCQRPDGALYGSLHFDPEACSFRELLLEDGYNVYQSEAHGLPLHLPGNKSPHRDPAPRGPARFLPLPGLPPALPEPPGILAPQPPDVGSSDPLSMVGPSQGRSPSYAS

Reference: US9540424B2, “Serum albumin binding molecules” (BRISTOL-MYERS SQUIBB COMPANY, priority 2010, dated 2017)
